This note sets out measurements from patent publication US20040048327A1 (GEORGIA TECH RESEARCH, published 2004).

First the molecules themselves.
B1: Cbz-Ala-Ala-AAsn-(2R, 3R)-EP-COOEt (peptide)
peptide: Cbz-Ala-Ala-[azaAsn]-{(2R,3R)‑EP‑COOEt}
B2: PhPr-Val-Ala-AAsp-(S,S)-EP-CO-Leu-NH2 (peptide)
peptide: PhPr-Val-Ala-[AAsp]-{(S,S)‑EP‑CO-Leu-NH2}
B3: PhPr-Val-Ala-AAsp-(S,S)-EP-CONHCH2CH2Ph (peptide)
peptide: PhPr-Val-Ala-[AAsp]-{(S,S)‑EP‑CONHCH2CH2Ph}
B4: PhPr-Val-Ala-AAsp-trans-EP-CH2CH2Ph (peptide)
peptide: Hydrocinnamoyl-Val-Ala-[AAsp]-{trans‑EP‑CH2CH2Ph}
modifications: reading uncertain; also: printed as PhPr-Val-Ala-AAsp-trans-EP-CH2CH2Ph
B5: Cbz-Asp-Glu-Val-AAsp-(2R, 3R)-EP-COOEt (peptide)
peptide: Cbz-DEVD
modifications: not fully specified (residue 4, C-terminus); printed as Cbz-Asp-Glu-Val-AAsp-(2R, 3R)-EP-COOEt
B6: PhPr-Val-Ala-AAsp-(S,S)-EP-CO-Tyr-NH2 (peptide)
peptide: PhPr-Val-Ala-[AAsp]-{(S,S)‑EP‑CO-Tyr-NH2}
B7: Cbz-Ile-Glu-Thr-AAsp-(2R,3R)-EP-COOEt (peptide)
peptide: Cbz-IET[azaAsp]-{(2R,3R)‑EP‑COOEt}
B8: PhPr-Val-Ala-AAsp-(S,S)-EP-CO-Ala-NHCH2Ph (peptide)
peptide: PhPr-Val-Ala-[AAsp]-{(S,S)‑EP‑CO-Ala-NHBn}
B9: Cbz-Glu-Val-AAsp-(2S,3S)-EP-COOEt (peptide)
peptide: Cbz-Glu-Val-[azaAsp]-{(2S,3S)‑EP‑COOEt}
B10: PhPr-Val-Ala-AAsp-trans-EP-COOCH2Ph (peptide)
peptide: PhPr-Val-Ala-[AAsp]-{trans‑EP‑COOCH2Ph}
B11: PhPr-Val-Ala-AAsp-(S,S)-EP-CONHCH2Ph (peptide)
peptide: Hydrocinnamoyl-Val-Ala-[AAsp]-{(S,S)‑EP‑CONHCH2Ph}
B12: Cbz-Ile-Glu-Thr-AAsp-(R, R)-EP-CONHCH2Ph (peptide)
peptide: Cbz-IET[azaAsp]-{(R,R)‑EP‑CONHCH2Ph}
B13: PhPr-Val-Ala-AAsp-(R,R)-EP-CO-Ala-NHCH2Ph (peptide)
peptide: Hydrocinnamoyl-Val-Ala-[AAsp]-{(R,R)‑EP‑CO-Ala-NHBn}
B14: Cbz-Glu-Val-AAsp-(R,R)-EP-CO-Phe-NH2 (peptide)
peptide: Cbz-Glu-Val-[azaAsp]-{(R,R)‑EP‑CO-Phe-NH2}
B15: Cbz-Asp-Glu-Val-AAsp-(S,S)-EP-COOCH2Ph (peptide)
peptide: Cbz-DEV[azaAsp]-{(S,S)‑EP‑COOCH2Ph}
B16: PhPr-Val-Ala-AAsp-(S,S)-EP-COOCH2CH2Ph (peptide)
peptide: Hydrocinnamoyl-Val-Ala-[AAsp]-{(S,S)‑EP‑COOCH2CH2Ph}
B17: Cbz-Ile-Glu-Thr-AAsp-(S,S)-EP-COOCH2Ph (peptide)
peptide: Cbz-IET[azaAsp]-{(S,S)‑EP‑COOCH2Ph}
B18: PhPr-Val-Ala-AAsp-(S,S)-EP-COOEt (peptide)
peptide: Hydrocinnamoyl-Val-Ala-[AAsp]-{(S,S)‑EP‑COOEt}
B19: PhPr-Val-Ala-AAsp-(2R, 3R)-EP-COOCH2Ph (peptide)
peptide: Hydrocinnamoyl-Val-Ala-[AAsp]-{(2R,3R)‑EP‑COOCH2Ph}
B20: PhPr-Val-Ala-AAsp-(S,S)-EP-CO-Phe-NH2 (peptide)
peptide: PhPr-Val-Ala-[AAsp]-{(S,S)‑EP‑CO-Phe-NH2}
B21: Cbz-Glu-Val-AAsp-(S,S)-EP-CONHCH2CH2Ph (peptide)
peptide: Cbz-Glu-Val-[azaAsp]-{(S,S)‑EP‑CONHCH2CH2Ph}
B22: PhPr-Val-Ala-AAsp-(R,R)-EP-CONHCH2CH2Ph (peptide)
peptide: Hydrocinnamoyl-Val-Ala-[AAsp]-{(R,R)‑EP‑CONHCH2CH2Ph}
B23: PhPr-Val-Ala-AAsp-(R,R)-EP-CO-Phe-NH2 (peptide)
peptide: Hydrocinnamoyl-Val-Ala-[AAsp]-{(R,R)‑EP‑CO-Phe-NH2}
B24: Cbz-Ile-Glu-Thr-AAsp-(R, R)-EP-COOCH2Ph (peptide)
peptide: Cbz-IET[azaAsp]-{(R,R)‑EP‑COOCH2Ph}
B25: PhPr-Val-Ala-AAsp-(R,R)-EP-CONHCH2Ph (peptide)
peptide: Hydrocinnamoyl-Val-Ala-[AAsp]-{(R,R)‑EP‑CONHCH2Ph}
B26: PhPr-Val-Ala-AAsp-(R,R)-EP-COOEt (peptide)
peptide: Hydrocinnamoyl-Val-Ala-[AAsp]-{(R,R)‑EP‑COOEt}
B27: PhPr-Val-Ala-AAsp-(S,S)-EP-CONHCH2CH(OH)Ph (peptide)
peptide: PhPr-Val-Ala-[AAsp]-{(S,S)‑EP‑CONHCH2CH(OH)Ph}
B28: Cbz-Asp-Glu-Val-AAsp-(S,S)-EP-CONHCH2Ph (peptide)
peptide: Cbz-DEV[azaAsp]-{(S,S)‑EP‑CONHCH2Ph}
B29: PhPr-Val-Ala-AAsp-(R,R)-EP-CONHCH2CH(OH)Ph (peptide)
peptide: Hydrocinnamoyl-Val-Ala-[AAsp]-{(R,R)‑EP‑CONHCH2CH(OH)Ph}
B30: Cbz-Asp-Glu-Val-AAsp-(2S, 3S)-EP-COOEt (peptide)
peptide: Cbz-DEVD
modifications: not fully specified (residue 4, C-terminus); printed as Cbz-Asp-Glu-Val-AAsp-(2S, 3S)-EP-COOEt
B31: Cbz-Ile-Glu-Thr-AAsp-(2S, 3S)-EP-COOEt (peptide)
peptide: Cbz-IET[azaAsp]-{(2S,3S)‑EP‑COOEt}
B32: Cbz-Asp-Glu-Val-AAsp-(S,S)-EP-CO-Phe-NH2 (peptide)
peptide: Cbz-DEV[azaAsp]-{(S,S)‑EP‑CO-Phe-NH2}
B33: PhPr-Val-Ala-AAsp-(2S, 3S)-EP-COOCH2Ph (peptide)
peptide: PhPr-Val-Ala-[AAsp]-{(2S,3S)‑EP‑COOCH2Ph}
B34: PhPr-Val-Ala-AAsp-(S,S)-EP-CONHCH2CH3 (peptide)
peptide: Hydrocinnamoyl-Val-Ala-[AAsp]-{(S,S)‑EP‑CONHCH2CH3}
B35: Cbz-Val-AAsp-(S, S)-EP-COOH (peptide)
peptide: Cbz-Val-[azaAsp]-{(S,S)‑EP‑COOH}
B36: Cbz-Val-AAsp-(S,S)-EP-COOEt (peptide)
peptide: Cbz-Val-[azaAsp]-{(S,S)‑EP‑COOEt}
B37: Cbz-Val-AAsp-(trans)-EP-Ph-4-Cl (peptide)
peptide: Cbz-Val-[AAsp]-{(trans)‑EP‑Ph‑4‑Cl}
B38: Cbz-Val-AAsp-(trans)-EP-CH2CH2Ph (peptide)
peptide: Cbz-Val-[AAsp]-{(trans)‑EP‑CH2CH2Ph}
B39: Cbz-Ile-Glu-Thr-AAsp-(S,S)-EP-CO-Ala-NHCH2Ph (peptide)
peptide: Cbz-IET[azaAsp]-{(S,S)‑EP‑CO-Ala-NHBn}

Numbered stars: 1 amine (or outer) side, 2 acyl side, 3 side chain; on linkers, the order of the positions; unused ones are H or OH. Square brackets hold non-standard residues; d marks the D form. Ends that are not written are not given here. * marks the point of attachment. AAsp = aza-Asp, O=C(N(CC(=O)[*:3])N[*:1])[*:2]; azaAsp = O=C(N(CC(=O)[*:3])N[*:1])[*:2]; PhPr = N-terminal cap as named (PhPr); trans‑EP‑CH2CH2Ph = not defined here; azaAsn = NC(=O)CN(N[*:1])C(=O)[*:2]; Hydrocinnamoyl = O=C(CCc1ccccc1)*; Cbz = O=C(OCc1ccccc1)*; NHBn = c1ccc(CN*)cc1

For one assay, the target named is T1, schistosome legumain SmAE (Schistosoma mansoni asparaginyl endopeptidase) (Schistosoma mansoni, UniProt P09841 32-291).
T1 sequence (looked up): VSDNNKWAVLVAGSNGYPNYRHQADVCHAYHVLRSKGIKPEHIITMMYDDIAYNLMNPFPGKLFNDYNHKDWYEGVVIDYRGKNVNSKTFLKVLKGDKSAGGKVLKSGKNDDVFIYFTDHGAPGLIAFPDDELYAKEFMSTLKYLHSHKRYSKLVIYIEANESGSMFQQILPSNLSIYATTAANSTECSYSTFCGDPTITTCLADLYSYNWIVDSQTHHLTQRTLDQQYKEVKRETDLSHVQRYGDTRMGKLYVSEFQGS
The experiment in a line: cell-based or functional assay.
By IC50 is commonly meant the concentration that inhibits the measured activity by half. Regarding B1, the IC50 was determined as 788 nM.

Another assay concerns the target T2, autolytically stable caspase-1 variant (D381 E) (UniProt P29466 120-404, limits assumed).
T2 sequence (looked up): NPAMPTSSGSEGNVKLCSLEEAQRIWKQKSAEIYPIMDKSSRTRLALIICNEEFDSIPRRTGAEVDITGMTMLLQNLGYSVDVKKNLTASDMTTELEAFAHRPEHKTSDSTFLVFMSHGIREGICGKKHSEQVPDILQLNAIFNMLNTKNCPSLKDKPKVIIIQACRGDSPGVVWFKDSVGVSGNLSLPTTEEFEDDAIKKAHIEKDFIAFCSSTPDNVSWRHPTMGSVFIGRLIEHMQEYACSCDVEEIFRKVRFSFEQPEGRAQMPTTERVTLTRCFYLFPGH
The experiment in a line: cell-based or functional assay.
B2 registered a k2 of 26100 M⁻¹ s⁻¹.
Still for that read-out and setting: the figure for B3 is 17200 M⁻¹ s⁻¹.
In turn, B4 yielded a k2 of 300 M⁻¹ s⁻¹.
B5 came in with a k2 of 4320 M⁻¹ s⁻¹.
Still for that read-out and setting: the result for B6 reads 3240 M⁻¹ s⁻¹; that for B7, 13300 M⁻¹ s⁻¹; that for B8, 13400 M⁻¹ s⁻¹.
In turn, B9 displayed a k2 of 58500 M⁻¹ s⁻¹.
The same measure, in the same setting: the result for B10 reads 18100 M⁻¹ s⁻¹.
Regarding B11, the k2 stood at 65900 M⁻¹ s⁻¹.
B12 had a k2 of 18100 M⁻¹ s⁻¹.
Same read-out and setting: the result for B13 reads 268 M⁻¹ s⁻¹.
On the same count and under the same terms, the figure for B14 is 1040 M⁻¹ s⁻¹; for B15 it is 54700 M⁻¹ s⁻¹.
Molecule B16 showed a k2 of 56600 M⁻¹ s⁻¹.
Same read-out and setting: the result for B17 reads 45800 M⁻¹ s⁻¹.
For the molecule B18, the k2 stood at 32200 M⁻¹ s⁻¹.
As to B19, the k2 stood at 1860 M⁻¹ s⁻¹.
Take B20: the k2 came out at 32700 M⁻¹ s⁻¹.
On the same count and under the same terms, the result for B21 reads 41100 M⁻¹ s⁻¹; that for B22, 950 M⁻¹ s⁻¹.
Same read-out and setting: the figure for B23 is 330 M⁻¹ s⁻¹; for B24 it is 13000 M⁻¹ s⁻¹.
The same measure, in the same setting: the figure for B25 is 1630 M⁻¹ s⁻¹; for B26 it is 6290 M⁻¹ s⁻¹.
On to B27, for which the k2 was determined as 12300 M⁻¹ s⁻¹.
On to B28, for which the k2 worked out at 25400 M⁻¹ s⁻¹.
The same measure, in the same setting: the result for B29 reads 400 M⁻¹ s⁻¹.
As to B30, the k2 amounted to 11800 M⁻¹ s⁻¹.
For the molecule B31, the k2 is 12400 M⁻¹ s⁻¹.
Same read-out and setting: the result for B32 reads 9250 M⁻¹ s⁻¹.
The same measure, in the same setting: the result for B33 reads 52100 M⁻¹ s⁻¹.

In another assay the target is T3, caspase-3 (UniProt P42574 29-277, limits assumed).
T3 sequence (looked up): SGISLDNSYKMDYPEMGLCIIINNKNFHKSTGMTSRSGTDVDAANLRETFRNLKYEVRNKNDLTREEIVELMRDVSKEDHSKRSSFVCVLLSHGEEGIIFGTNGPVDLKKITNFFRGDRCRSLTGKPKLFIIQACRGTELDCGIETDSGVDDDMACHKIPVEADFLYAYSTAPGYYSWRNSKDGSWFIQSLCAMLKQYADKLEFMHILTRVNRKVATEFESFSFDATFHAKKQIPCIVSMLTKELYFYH
The assay is described as follows: cell-based or functional assay.
Consider B2, for which the k2 came to 420 M⁻¹ s⁻¹.
The molecule B3 came in with a k2 of 1110 M⁻¹ s⁻¹.
The same measure, in the same setting: the figure for B5 is 464000 M⁻¹ s⁻¹; for B6 it is 87 M⁻¹ s⁻¹.
B7 came in with a k2 of 2630 M⁻¹ s⁻¹.
The same measure, in the same setting: the result for B8 reads 260 M⁻¹ s⁻¹.
Still for that read-out and setting: the result for B9 reads 50500 M⁻¹ s⁻¹; that for B10, 680 M⁻¹ s⁻¹.
B11 registered a k2 of 1610 M⁻¹ s⁻¹.
Regarding B12, the k2 was 6480 M⁻¹ s⁻¹.
As to B14, the k2 worked out at 470 M⁻¹ s⁻¹.
B15 showed a k2 of 1.92e+06 M⁻¹ s⁻¹.
Still for that read-out and setting: the figure for B16 is 2110 M⁻¹ s⁻¹; for B34 it is 1910 M⁻¹ s⁻¹; for B17 it is 9540 M⁻¹ s⁻¹.
Molecule B18 showed a k2 of 1040 M⁻¹ s⁻¹.
In turn, B20 gave a k2 of 625 M⁻¹ s⁻¹.
The molecule B35 gave a k2 of 1110 M⁻¹ s⁻¹.
Turning to B21, the k2 was found to be 27300 M⁻¹ s⁻¹.
Still for that read-out and setting: the result for B24 reads 3120 M⁻¹ s⁻¹; that for B36, 3650 M⁻¹ s⁻¹; that for B27, 510 M⁻¹ s⁻¹.
In turn, B28 came in with a k2 of 1.1e+06 M⁻¹ s⁻¹.
Still for that read-out and setting: the result for B37 reads 145 M⁻¹ s⁻¹; that for B38, 310 M⁻¹ s⁻¹.
The same measure, in the same setting: the figure for B30 is 1.07e+06 M⁻¹ s⁻¹; for B39 it is 3050 M⁻¹ s⁻¹.
B31 came in with a k2 of 4080 M⁻¹ s⁻¹.
On the same count and under the same terms, the figure for B32 is 722000 M⁻¹ s⁻¹.
Still for that read-out and setting: the result for B33 reads 1470 M⁻¹ s⁻¹.
